B1: Human His-Gαi3 WT [human] / Fluorescein-labelled RGS12 GoLoco peptide (residues 1,185–1,221) [modified: 5,6-carboxyfluorescein coupled to the resin-bound peptide after chain elongation; 5,6-carboxyfluorescein coupled to the resin-bound … (parent complex)
chain 1: MGCTLSAEDKAAVERSKMIDRNLREDGEKAAKEVKLLLLGAGESGKSTIVKQMKIIHEDGYSEDECKQYKVVVYSNTIQSIIAIIRAMGRLKIDFGEAARADDARQLFVLAGSAEEGVMTPELAGVIKRLWRDGGVQACFSRSREYQLNDSASYYLNDLDRISQSNYIPTQQDVLRTRVKTTGIVETHFTFKDLYFKMFDVGGQRSERKKWIHCFEGVTAIIFCVALSDYDLVLAEDEEMNRMHESMKLFDSICNNKWFTETSIILFLNKKDLFEEKIKRSPLTICYPEYTGSNTYEEAAAYIQCQFEDLNRRKDTKEIYTHFTCATDTKNVQFVFDAVTDVIIKNNLKECGLY
chain 2: DEAEEFFELISKAQSNRADDQRGLLRKEDLVLPEFLR

In the test the parent is B1. Nature of the test: fluorescence polarisation.
Regarding chain 1 L39A, the Kd (as a rule, the constant that tells how readily two partners part at equilibrium) stood at 176 nM. As to chain 1 L36A, the Kd is 119 nM. As for chain 1 L37A, the Kd is 80 nM. In the case of chain 1 K257A, the Kd turned out to be 86 nM. chain 1 I184A: the Kd amounted to 83 nM. On to chain 1 N256A, for which the Kd is 77 nM.

Turning to chain 1 F215A, the Kd is 551 nM. The value for chain 1 W258F was 63 nM.
